Changes are numbered by the printed parent chain.

The record followed here is patent US20250115678A1 (AstraZeneca / MedImmune, published 2025).

The target of assay [1] is T1, soluble recombinant human GPC3 protein (human, UniProt P51654 25-559, biotinylated in the biolayer interferometry assay).
T1 construct: also called GPC3 human
As to the kind of experiment: biolayer interferometry (Octet), biotinylated antigen on streptavidin biosensors. On the procedure:
(§1) Binding kinetics were measured by biolayer interferometry on an OCTET 384 instrument. Streptavidin (SA) biosensors were loaded with biotinylated protein antigens (ACRO Biosystems, Newark, DE) in PBS pH 7.2, 1 mg/mL BSA, 0.05% (v/v) TWEEN (Kinetic buffer). The loaded biosensors were washed in the same buffer before carrying out association and dissociation measurements with various antibodies for the indicated times. Kinetic parameters (Kₒₙ and Koff) and affinities (KD) were calculated from a non-linear fit of the data using the OCTET software v.12.2.1.24.
Background: In BLI a coated tip is dipped into the sample, and binding shifts an interference pattern.

For assay [2], the target named is T2, soluble recombinant human CD8a protein (human, UniProt P01732 22-182, biotinylated).
T2 construct: also called CD8α Human
T2 sequence (P01732 22-182 limits assumed): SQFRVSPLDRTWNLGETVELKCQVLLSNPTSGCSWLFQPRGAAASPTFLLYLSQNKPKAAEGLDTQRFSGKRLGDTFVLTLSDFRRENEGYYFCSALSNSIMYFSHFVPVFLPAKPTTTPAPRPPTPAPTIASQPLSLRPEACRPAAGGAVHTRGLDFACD
In words: biolayer interferometry (Octet RED384), biotinylated antigen on streptavidin biosensors. On the procedure:
as §1

Assay [3] concerns the target T3, human EphB6 on transiently transfected Ad293 cells (human, UniProt O15197 32-1021).
T3 construct: whole, on cells; also called EphB6-expressing cells
T3 sequence (looked up): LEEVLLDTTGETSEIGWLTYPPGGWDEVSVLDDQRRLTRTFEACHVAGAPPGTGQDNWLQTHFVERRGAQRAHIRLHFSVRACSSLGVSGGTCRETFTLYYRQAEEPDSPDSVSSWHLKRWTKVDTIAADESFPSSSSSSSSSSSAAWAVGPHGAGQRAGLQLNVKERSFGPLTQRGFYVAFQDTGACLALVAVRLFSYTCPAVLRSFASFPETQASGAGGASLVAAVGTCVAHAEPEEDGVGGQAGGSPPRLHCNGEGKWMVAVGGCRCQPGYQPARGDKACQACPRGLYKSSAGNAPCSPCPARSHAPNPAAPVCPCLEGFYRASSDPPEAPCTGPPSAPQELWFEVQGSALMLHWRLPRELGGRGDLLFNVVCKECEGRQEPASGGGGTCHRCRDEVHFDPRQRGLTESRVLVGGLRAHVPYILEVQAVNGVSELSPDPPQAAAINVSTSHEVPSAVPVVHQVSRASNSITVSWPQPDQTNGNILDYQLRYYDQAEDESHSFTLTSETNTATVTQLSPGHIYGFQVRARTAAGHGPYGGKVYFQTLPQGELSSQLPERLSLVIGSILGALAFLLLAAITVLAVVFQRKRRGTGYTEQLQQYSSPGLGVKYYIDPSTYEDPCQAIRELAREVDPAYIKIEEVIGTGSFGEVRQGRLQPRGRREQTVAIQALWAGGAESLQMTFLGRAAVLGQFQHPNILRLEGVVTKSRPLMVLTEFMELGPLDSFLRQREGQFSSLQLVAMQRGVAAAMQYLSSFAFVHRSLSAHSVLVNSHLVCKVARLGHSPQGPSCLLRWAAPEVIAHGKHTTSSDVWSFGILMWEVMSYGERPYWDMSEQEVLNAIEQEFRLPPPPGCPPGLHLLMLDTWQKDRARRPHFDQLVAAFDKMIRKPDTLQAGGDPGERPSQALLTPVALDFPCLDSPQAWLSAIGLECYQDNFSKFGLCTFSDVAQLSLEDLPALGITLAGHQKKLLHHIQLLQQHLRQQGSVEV
As to the kind of experiment: Flow cytometry on Ad293 cells transiently transfected with human EphB6 (off-target binding). An excerpt:
Ad293 cells were transiently transfected with a plasmid expressing human EphB6.

For assay [4], the target named is T4, human LRRC15 recombinant extracellular domain protein (human, UniProt Q8TF66 22-538).
T4 construct: extracellular domain; also called LRRC15 human
T4 sequence (looked up): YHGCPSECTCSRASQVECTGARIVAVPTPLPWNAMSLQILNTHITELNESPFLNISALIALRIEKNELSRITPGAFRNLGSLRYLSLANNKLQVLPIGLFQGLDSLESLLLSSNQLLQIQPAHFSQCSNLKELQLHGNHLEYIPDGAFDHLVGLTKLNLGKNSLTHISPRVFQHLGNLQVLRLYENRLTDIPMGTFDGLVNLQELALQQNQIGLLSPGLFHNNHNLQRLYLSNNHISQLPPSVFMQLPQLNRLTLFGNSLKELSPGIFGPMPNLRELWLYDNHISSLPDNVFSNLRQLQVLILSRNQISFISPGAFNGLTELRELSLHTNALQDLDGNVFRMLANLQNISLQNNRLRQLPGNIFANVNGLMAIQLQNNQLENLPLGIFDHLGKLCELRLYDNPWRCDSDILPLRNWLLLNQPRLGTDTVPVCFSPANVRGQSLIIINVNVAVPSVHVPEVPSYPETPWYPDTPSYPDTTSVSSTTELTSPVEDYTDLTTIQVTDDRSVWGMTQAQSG
In words: SPR single-cycle kinetics (Biacore 8K+), TCE captured on Protein G chip, LRRC15 ECD as analyte, 1:1 fit, average of 3 or 4 replicates. An excerpt: (§2) The fully corrected binding data were globally fitted to a 1:1 binding model to determine the KD using the Biacore™ Insight Evaluation Software (CYTIVA). Coloured sensorgram trace represents the raw data and black line the global 1:1 fit to that data. Values for kinetics parameters is shown in Table 8 are averages for 3 or 4 replicate sets of measurements.
Background: Surface plasmon resonance follows binding to a sensor surface in real time, without labels.

The target in assay [5] is T5, cyno LRRC15 recombinant extracellular domain protein (cyno, UniProt G7NYR2 22-538).
T5 construct: extracellular domain; also called LRRC15 cyno
The description is as above.
From the text: as §2

T1 sequence (P51654 25-559 limits assumed): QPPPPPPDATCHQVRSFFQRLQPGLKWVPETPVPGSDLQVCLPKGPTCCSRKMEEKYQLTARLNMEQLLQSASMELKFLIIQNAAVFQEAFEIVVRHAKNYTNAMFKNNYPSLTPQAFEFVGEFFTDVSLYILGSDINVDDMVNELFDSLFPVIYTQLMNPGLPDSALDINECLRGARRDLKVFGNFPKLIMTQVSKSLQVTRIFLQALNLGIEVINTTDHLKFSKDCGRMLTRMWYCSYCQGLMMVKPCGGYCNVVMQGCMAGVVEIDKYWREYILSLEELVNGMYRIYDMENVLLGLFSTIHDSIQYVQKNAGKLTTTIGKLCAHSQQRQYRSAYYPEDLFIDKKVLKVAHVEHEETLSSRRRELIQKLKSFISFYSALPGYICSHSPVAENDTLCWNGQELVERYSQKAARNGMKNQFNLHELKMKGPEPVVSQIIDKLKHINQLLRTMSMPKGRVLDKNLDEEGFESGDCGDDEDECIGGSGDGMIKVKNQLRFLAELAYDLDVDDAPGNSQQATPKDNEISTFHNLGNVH

B1: anti-GPC3 Fab (Fab, V domains shown)
VH: QVQLVQSGAEVKKPGASVKVSCKASGYTFTDYEMHWVRQAPGQGLEWMGALDPKTGDTAYSQKFKGRVTLTADKSTSTAYMELSSLTSEDTAVYYCTRFYSYTYWGQGTLVTVSS
VL: DVVMTQSPLSLPVTPGEPASISCRSSQSLVHSNRNTYLHWYLQKPGQSPQLLIYKVSNRFSGVPDRFSGSGSGTDFTLKISRVEAEDVGVYYCSQNTHVPPTFGQGTKLEIK
By Kd is commonly meant a measure of binding affinity in units of concentration. In general, koff refers to the first-order rate constant of dissociation. By kon is commonly meant the rate constant with which the complex forms. Consider B1, for which, in assay [1], the equilibrium dissociation constant (Kd) was 1.87 nM, the koff came out at 0.000422 s⁻¹ and the on-rate constant (kon) stood at 226000 M⁻¹ s⁻¹.

B2: anti-CD8 VHH (VHH)
VHH: EVQLLESGGGLVQPGGSLRLSCAASGFTFDDYAIGWFRQAPGKEREGVSCIRVSDGSTYYADSVKGRFTISRDNSKNTLYLQMNSLRAEDTAVYYCAAGSLYTCVQSIVWPARPYYDMDYWGQGTLV
notes: also called CD8 VHHb
In the case of B2, in assay [2], the Kd stood at 55.3 nM, the koff came out at 0.0286 s⁻¹ and the kon came to 517000 M⁻¹ s⁻¹.

B3: TPP-46959 (other)
light: not shown
heavy 1: EVQLVQSGAEVKKPGASVKVSCKASGYKFSSYWIEWVKQAPGQGLEWIGEILPGSDTTNYAQKFQDRVTFTSDTSISTAYMELSRLRSDDTAVYYCARDRGNYRAWFGYWGQGTLVTVSSASTKGPSVFPLAPSSKSTSGGTAALGCLVKDYFPEPVTVSWNSGALTSGVHTFPAVLQSSGLYSLSSVVTVPSSSLGTQTYICNVNHKPSNTKVDKRVEPKSCDKTGGSEVQLVESGGGLVQPGGSLRLSCVASGDVHKINFLGWYRQAPGKEREKVAHISIGDQTDYADSAKGRFTISRDESKNMVYLQMNSLKPEDTAVYFCRAFSRIYPYDYWGQGTLVTVSSGGGGSTHTCPPCPAPPVAGPSVFLFPPKPKDTLMISRTPEVTCVVVDVKHEDPEVKFNWYVDGVEVHNAKTKPREEQYNSTYRVVSVLTVLHQDWLNGKEYKCKVSNKALPAPIEKTISKAKGQPREPQVCTLPPSREEMTKNQVSLSCAVKGFYPSDIAVEWESNGQPENNYKTTPPVLDSDGSFFLVSKLTVDKSRWQQGNVFSCSVMHEALHNRFTQKSLSLSPGK
heavy 2: EVQLVQSGAEVKKPGASVKVSCKASGYKFSSYWIEWVKQAPGQGLEWIGEILPGSDTTNYAQKFQDRVTFTSDTSISTAYMELSRLRSDDTAVYYCARDRGNYRAWFGYWGQGTLVTVSSASTKGPSVFPLAPSSKSTSGGTAALGCLVKDYFPEPVTVSWNSGALTSGVHTFPAVLQSSGLYSLSSVVTVPSSSLGTQTYICNVNHKPSNTKVDKRVEPKSCDKTGGSEVQLLESGGGLVQPGGSLRLSCAASGFTFTDYAIGWFRQAPGKEREGVSCIRVSDGSTYYADSVKGRFTISRDSSKNTLYLQMNSLRAEDTAVYYCAAGSLYTCVQSIVWPARPYYDMDYWGQGTLVTVSSGGGGSTHTCPPCPAPPVAGPSVFLFPPKPKDTLMISRTPEVTCVVVDVKHEDPEVKFNWYVDGVEVHNAKTKPREEQYNSTYRVVSVLTVLHQDWLNGKEYKCKVSNKALPAPIEKTISKAKGQPREPQVYTLPPCREEMTKNQVSLWCLVKGFYPSDIAVEWESNGQPENNYKTTPPVLDSDGSFFLYSKLTVDKSRWQQGNVFSCSVMHEALHNHYTQKSLSLSPGK
notes: T-cell engager in the CD8/TCR format: 2x LRRC15 Fab, 1x TCR VHH, 1x CD8 VHH; Residue 55 of L-CDR2 is E
Take B3: the binding result in assay [3] is “binds”. The results for the Kd in assay [4] and in assay [5] were 1.34 nM and 3 nM, respectively.

B4: TPP-46960 (other)
light: not shown
heavy 1: B3 heavy 1
heavy 2: B3 heavy 2
notes: T-cell engager in the CD8/TCR format: 2x LRRC15 Fab, 1x TCR VHH, 1x CD8 VHH; Residue 55 of L-CDR2 is N
On to B4, for which the binding result in assay [3] is “binds”. The equilibrium dissociation constant (Kd) in assay [4] was 0.98 nM; in assay [5], 2.24 nM.

B5: TPP-46958 (other)
light: not shown
heavy 1: B3 heavy 1 with T57A
heavy 2: B3 heavy 2 with T57A
notes: T-cell engager in the CD8/TCR format: 2x LRRC15 Fab, 1x TCR VHH, 1x CD8 VHH
In the case of B5, the binding result in assay [3] was “binds”. For the same molecule, the Kd in assay [4] came out at 3.1 nM; in assay [5] it was 6.4 nM.

B6: TPP-46956 (other)
light: not shown
heavy 1: B3 heavy 1 with K63N
heavy 2: B3 heavy 2 with K63N
notes: as for B5
For B6, the binding result in assay [3] was “binds”. Besides, the values for the dissociation constant (Kd) in assay [4] and in assay [5] were 2.24 nM and 4.8 nM, respectively.

B7: TPP-46957 (other)
light: not shown
heavy 1: B3 heavy 1 with K63Q
heavy 2: B3 heavy 2 with K63Q
notes: as for B5
As to B7, the binding result in assay [3] is given as “binds”. Further, the Kd in assay [4] was 2.27 nM; in assay [5] it was 4.55 nM.
